{
  "source": "patent US5625031A",
  "about": "“Peptide inhibitors of the p33^cdk2 and p34^cdc2 cell cycle regulatory kinases and human papillomavirus E7 oncoprotein” (Bristol-Myers Squibb Company, priority 1994, dated 1997)",
  "key": {"[1]": {"target": "T1, E7-Rb complex (Human papillomavirus type 18, UniProt P06788)", "T1 construct": "made in house; host or cells: bacteria (MBP-E7); baculovirus system (Rb)", "T1 sequence (P06788 whole entry, one chain of several)": "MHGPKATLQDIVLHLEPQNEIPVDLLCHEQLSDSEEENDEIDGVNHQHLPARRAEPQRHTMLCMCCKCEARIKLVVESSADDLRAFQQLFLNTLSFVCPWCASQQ", "experiment": "ELISA assay of competition for E7-Rb complex formation", "assay_type": "binding", "conditions": "MBP-E7 coated plate, 100 ng Rb, increasing peptide concentrations", "method": "To examine the effect of p107 peptide binding upon the E7-Rb interaction, an ELISA assay was used to monitor E7-Rb complex formation. 96-well cluster plates were coated with either MBP-E7 protein (O) or MBP alone as a control (.circle-solid.). The plates were incubated with increasing concentrations of baculovirus expressed Rb which was detected with monoclonal antibody αRb349 (Pharmingen, San Diego Calif.) (FIG. 4A). In a separate experiment, 96-well cluster plates were coated with MBP-E7 protein and incubated with 100 ng Rb in the presence of increasing concentrations of p107 9mer peptide (FIG. 4B). Binding is quantitated as an increase in optical density at 405 nm. […] A corresponding peptide from Rb protein (sequence MCSMYGICK [SEQ ID NO: 2]) also binds to the E7 oncoprotein and competes for the E7-Rb interaction."}, "[2]": {"target": "T2, HPV18-E7 protein (Human papillomavirus type 18, UniProt P06788)", "T2 construct": "made in house", "T2 sequence (P06788 whole entry, the tested form may be a part)": "as the sequence (P06788 whole entry, one chain of several) above", "experiment": "biochemical", "assay_type": "binding", "conditions": "E7 type and method not stated", "method": "The association of bacterially expressed HPV18-E7 protein with the p107 30mer peptide was analyzed using an ELISA assay. In the experiment depicted in FIG. 3A, a 96-well cluster plate was coated with p107 30mer peptide and incubated with increasing concentration of a MBP-E7 fusion protein or the MBP protein as a control. […] In the experiment depicted in FIG. 3B, MBP-E7 fusion protein (100 ng) was incubated with a p107 30mer peptide-coated plate in the presence of increasing concentrations of free p107 9mer peptide."}},
  "note": "“Also recorded” adds a separate entry of the source.",
  "data": [
    {"sequence": "MCSMYGICK [nine amino acid peptide derived from Rb]", "values": [
      {"measurement": "competition for E7 association with Rb", "setting": "[1]", "result": "competes; also recorded: inhibits E7 binding to Rb"},
      {"measurement": "binding to the E7 oncoprotein", "setting": "[2]", "result": "binds"}
    ]}
  ]
}
